Measurements: article PMC4838342

Legend:
mCherry-LacI-H3 = mCherry-LacI-H3 (UniProt P68431); test: F2H (live cell imaging, recruitment to LacO array); settings: n=20; parent: est. 1.7; read off a plot
MBP H3 116–135 (human) = test: ITC; MicroCal iTC200; sNASP (180, 150, 100 μM) in the syringe injected into MBP H3 116–135 (30, 15, 10 μM) in the cell; 20 mM Hepes-KOH pH 7.5, 200 mM sodium chloride; one-site model

Row | other: enrichment ratio (mCherry-LacI-H3) | Kd (MBP H3 116–135 (human)) [nM] | stoichiometry N (MBP H3 116–135 (human)) | Substance
1 | 1.2 |  |  | EGFP-sNASP (from UniProt P49321-2) E211A; E215A; E217A
2 | 1.1 |  |  | EGFP-sNASP (from UniProt P49321-2) E246A; Y249S; L253S
3 |  | 47 to 68 | 1 | sNASP (from UniProt P49321-2 1-449) (natural protein; other documents disagree on this pair)
